US20060205032

T1: recombinant human STAT1 (Biosource), P42224
T1 chain: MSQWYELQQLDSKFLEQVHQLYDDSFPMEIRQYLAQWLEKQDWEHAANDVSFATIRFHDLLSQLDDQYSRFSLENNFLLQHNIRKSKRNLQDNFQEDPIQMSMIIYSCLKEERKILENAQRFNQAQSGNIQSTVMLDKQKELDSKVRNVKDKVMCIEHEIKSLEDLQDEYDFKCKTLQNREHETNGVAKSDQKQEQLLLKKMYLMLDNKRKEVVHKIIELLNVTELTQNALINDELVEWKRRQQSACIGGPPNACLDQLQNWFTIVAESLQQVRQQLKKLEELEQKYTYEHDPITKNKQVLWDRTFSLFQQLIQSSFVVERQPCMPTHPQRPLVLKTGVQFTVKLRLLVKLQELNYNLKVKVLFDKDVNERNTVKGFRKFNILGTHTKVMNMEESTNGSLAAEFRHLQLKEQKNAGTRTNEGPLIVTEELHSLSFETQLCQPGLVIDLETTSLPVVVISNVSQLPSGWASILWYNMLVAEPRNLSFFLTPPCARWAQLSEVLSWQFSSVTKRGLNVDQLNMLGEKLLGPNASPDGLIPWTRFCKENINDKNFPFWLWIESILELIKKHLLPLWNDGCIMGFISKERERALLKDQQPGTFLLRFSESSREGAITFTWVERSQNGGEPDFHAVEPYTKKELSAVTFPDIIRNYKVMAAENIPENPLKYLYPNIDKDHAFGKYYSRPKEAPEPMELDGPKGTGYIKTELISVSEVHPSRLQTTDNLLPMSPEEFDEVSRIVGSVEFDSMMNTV

B1: GST-Δ52-hSLIM (protein)
chain: MALTVDVAGPAPWGFRITGGRDFHTPIMVTKVAERGKAKDADLRPGDIIVAINGESAEGMLHAEAQSKIRQSPSPLRLQLDRSQATSPGQTNGDSSLEVLATRFQGSVRTYTESQSSLRSSYSSPTSLSPRAGSPFSPPPSSSSLTGEAAISRSMDSEGGSLLLDEDSEVFKMLQENREGRAAPRQSSSFRLLQEALEAEERGGTPAFLPSSLSPQSSLPASRALATPPKLHTCEKCSTSIANQAVRIQEGRYRHPGCYTCADCGLNLKMRGHFWVGDELYCEKHARQRYSAPATLSSRA
B2: GST-SLIM (bacterially expressed wild-type GST-hSLIM) (protein)
chain: MALTVDVAGPAPWGFRITGGRDFHTPIMVTKVAERGKAKDADLRPGDIIVAINGESAEGMLHAEAQSKIRQSPSPLRLQLDRSQATSPGQTNGDSSLEVLATRFQGSVRTYTESQSSLRSSYSSPTSLSPRAGSPFSPPPSSSSLTGEAAISRSFQSLACSPGLPAADRLSYSGRPGSRQAGLGRAGDSAVLVLPPSPGPRSSRPSMDSEGGSLLLDEDSEVFKMLQENREGRAAPRQSSSFRLLQEALEAEERGGTPAFLPSSLSPQSSLPASRALATPPKLHTCEKCSTSIANQAVRIQEGRYRHPGCYTCADCGLNLKMRGHFWVGDELYCEKHARQRYSAPATLSSRA

How the values were obtained:
[1] = target: T1, recombinant human STAT1 (Biosource), …
[2] = target: UbcH5a (human recombinant E2), P51668
UbcH5a (human recombinant E2), P51668, sequence (P51668 whole entry): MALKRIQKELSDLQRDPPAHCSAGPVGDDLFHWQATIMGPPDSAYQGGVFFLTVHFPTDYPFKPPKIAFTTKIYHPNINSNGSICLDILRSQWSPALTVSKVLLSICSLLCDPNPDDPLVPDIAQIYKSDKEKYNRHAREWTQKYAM

Row | Protein | ubiquitination of STAT1 (ubiquitin transfer assay, Avidin-HRP blot) [1] | ubiquitination of WT-Δ52-hSLIM with different human E2 enzymes (Avidin-HRP blot) [2]
1 | B1 | WT-Δ52-hSLIM demonstrates E3 ligase activity by transferring ubiquitin to a biologically relevant downstream substrate, STAT1 | WT-A52-hSLIM demonstrates preferential ubiquitination in the presence of UbcH5a
2 | B2 | WT-SLIM mediates the ubiquitination of STAT1 and demonstrates strong E3 ligase activity towards both STAT1 and hSLIM | –
